From the Human Domainome abundance scans (Beltran et al. 2025)
± gives the uncertainty stated by the source.

B1: PDZ and LIM domain protein 2, residues 284 to 339; numbered along this chain, Q96JY6 (parent)
chain: HTCEKCSTSIANQAVRIQEGRYRHPGCYTCADCGLNLKMRGHFWVGDELYCEKHAR
B2: Chromodomain-helicase-DNA-binding protein 4, residues 623 to 675; numbered along this chain, Q14839 (parent)
chain: MIHRILNHSVDKKGHVHYLIKWRDLPYDQASWESEDVEIQDYDLFKQSYWNHR

Variants of: B1
Assay: abundance fitness (aPCA) (normalised: wild type 0, dead -1); higher = more abundant; growth selection in yeast, the domain comes from the species named
Settings: Homo sapiens

Row | Variant | abundance fitness
1 | T8Y | 0.119 ± 0.13
2 | T8K | 0.255 ± 0.066
3 | T8N | 0.221 ± 0.13
4 | T8V | 0.189 ± 0.072
5 | T8E | 0.387 ± 0.1
6 | T8F | -0.111 ± 0.15
7 | T8I | -0.361 ± 0.15
8 | T8W | -0.068 ± 0.069
9 | T8M | -0.099 ± 0.085
10 | T8H | 0.173 ± 0.095
11 | T8S | 0.139 ± 0.086
12 | I17Q | -0.535 ± 0.14
13 | I17A | -0.341 ± 0.1
14 | I17P | -0.336 ± 0.062
15 | I17H | -0.781 ± 0.13
16 | I17R | -0.599 ± 0.074
17 | I17L | -0.121 ± 0.076
18 | I17M | -0.372 ± 0.072
19 | I17C | -0.453 ± 0.098
20 | I17G | -0.239 ± 0.083
21 | I17V | -0.106 ± 0.099
22 | I17D | -0.232 ± 0.3
23 | I17W | -0.533 ± 0.13
24 | I17Y | -0.437 ± 0.18
25 | I17K | -0.427 ± 0.09
26 | I17E | -0.325 ± 0.11

Row | Variant | abundance fitness
27 | I17T | -0.311 ± 0.079
28 | K5Y | 0.508 ± 0.14
29 | K5T | 0.104 ± 0.13
30 | K5R | 0.261 ± 0.079
31 | K5N | 0.269 ± 0.16
32 | K5S | -0.108 ± 0.096
33 | K5D | 0.181 ± 0.12
34 | K5P | -0.267 ± 0.16
35 | K5I | 0.463 ± 0.14
36 | K5L | 0.049 ± 0.12
37 | K5W | -0.553 ± 0.18
38 | K5M | -0.05 ± 0.083
39 | K5F | -0.467 ± 0.34
40 | K5C | -0.068 ± 0.13
41 | K5A | 0.157 ± 0.11
42 | K5G | -0.036 ± 0.057
43 | K5Q | 0.165 ± 0.12
44 | K5V | 0.055 ± 0.074
45 | K5E | 0.038 ± 0.13
46 | S7D | -0.55 ± 0.11
47 | S7A | 0.085 ± 0.079
48 | S7Y | -0.614 ± 0.2
49 | S7V | -0.16 ± 0.095
50 | S7G | 0.018 ± 0.056
51 | S7L | -0.09 ± 0.06
52 | S7T | 0.008 ± 0.076

Row | Variant | abundance fitness
53 | S7P | -0.613 ± 0.2
54 | S7H | -0.212 ± 0.11
55 | S7C | 0.023 ± 0.095
56 | S7F | -0.137 ± 0.073
57 | S7R | -0.216 ± 0.075
58 | S7I | -0.047 ± 0.14
59 | S7E | -0.878 ± 0.26
60 | S7W | -0.641 ± 0.1
61 | S7M | -0.083 ± 0.14
62 | S7N | -0.294 ± 0.18
63 | S9G | -0.08 ± 0.065
64 | S9N | -0.058 ± 0.12
65 | S9R | -0.34 ± 0.083
66 | S9Y | -1.02 ± 0.31
67 | S9A | 0.199 ± 0.08
68 | S9F | -1.09 ± 0.28
69 | S9P | -0.376 ± 0.12
70 | S9T | -0.271 ± 0.085
71 | S9W | -1.01 ± 0.14
72 | S9H | -0.539 ± 0.18
73 | S9C | -0.365 ± 0.073
74 | S9Q | -0.079 ± 0.12
75 | S9I | -0.764 ± 0.34
76 | S9D | 0.277 ± 0.13
77 | S9V | -0.485 ± 0.08
78 | S9M | -0.62 ± 0.11

Row | Variant | abundance fitness
79 | S9L | -0.767 ± 0.12
80 | Q18F | -0.303 ± 0.087
81 | Q18C | -0.087 ± 0.1
82 | Q18H | -0.451 ± 0.2
83 | Q18E | 0.002 ± 0.12
84 | Q18M | -0.253 ± 0.12
85 | Q18D | -0.032 ± 0.13
86 | Q18L | -0.077 ± 0.083
87 | Q18A | 0.043 ± 0.062
88 | Q18R | -0.062 ± 0.082
89 | Q18K | -0.141 ± 0.11
90 | Q18V | 0.008 ± 0.081
91 | Q18T | -0.051 ± 0.075
92 | Q18S | 0.03 ± 0.084
93 | Q18P | -0.47 ± 0.075
94 | Q18I | 0.228 ± 0.18
95 | Q18N | -0.248 ± 0.29
96 | Q18G | -0.088 ± 0.066
97 | A14W | -0.182 ± 0.12
98 | A14F | 0.188 ± 0.14
99 | A14N | -0.023 ± 0.12
100 | A14R | -0.466 ± 0.071
101 | A14K | -0.417 ± 0.093
102 | A14V | -0.208 ± 0.092
103 | A14E | 0.143 ± 0.084
104 | A14C | -0.139 ± 0.18

Row | Variant | abundance fitness
105 | A14H | -0.247 ± 0.24
106 | A14Y | -0.209 ± 0.22
107 | A14D | -0.33 ± 0.2
108 | A14T | -0.468 ± 0.11
109 | A14I | -0.07 ± 0.099
110 | A14Q | -0.329 ± 0.12
111 | A14S | -0.179 ± 0.079
112 | A14G | -0.254 ± 0.089
113 | V15Y | -0.499 ± 0.22
114 | V15I | -0.105 ± 0.16
115 | V15D | -0.115 ± 0.11
116 | V15W | -0.875 ± 0.17
117 | V15M | -0.283 ± 0.12
118 | V15S | -0.231 ± 0.069
119 | V15T | -0.018 ± 0.063
120 | V15E | 0.272 ± 0.13
121 | V15A | -0.625 ± 0.16
122 | V15H | -0.099 ± 0.19
123 | V15R | -0.596 ± 0.12
124 | V15K | 0.052 ± 0.13
125 | V15L | -0.248 ± 0.072
126 | V15C | -0.317 ± 0.15
127 | V15P | -0.654 ± 0.14
128 | V15Q | -0.115 ± 0.1
129 | V15G | -0.33 ± 0.06
130 | V15F | -0.38 ± 0.21

Variants of: B2
Assay: as above
Settings: Homo sapiens

Row | Variant | abundance fitness
131 | R53Y | 0.011 ± 0.2
132 | R53Q | 0.025 ± 0.27
133 | R53N | -0.313 ± 0.48
134 | R53L | -0.104 ± 0.21
135 | R53V | -0.09 ± 0.14
136 | R53H | -0.185 ± 0.3
137 | R53E | -0.189 ± 0.25
138 | R53D | -0.161 ± 0.26
139 | R53K | -0.22 ± 0.22
140 | R53T | -0.221 ± 0.18
141 | R53W | -0.044 ± 0.16
142 | R53P | -0.481 ± 0.28
143 | R53S | -0.141 ± 0.19
144 | R53C | -0.086 ± 0.21
145 | N51V | -0.341 ± 0.1
146 | N51Y | -0.267 ± 0.21
147 | N51T | 0.037 ± 0.13
148 | N51S | -0.079 ± 0.1
149 | N51W | -0.45 ± 0.12

Row | Variant | abundance fitness
150 | N51M | 0.01 ± 0.12
151 | N51Q | 0.004 ± 0.14
152 | N51R | 0.105 ± 0.089
153 | H52V | -0.016 ± 0.11
154 | H52R | 0.058 ± 0.08
155 | H52I | -0.29 ± 0.15
156 | H52Y | -0.254 ± 0.12
157 | H52L | -0.017 ± 0.13
158 | H52S | 0.106 ± 0.1
159 | H52E | 0.139 ± 0.16
160 | H52M | -0.18 ± 0.13
161 | H52P | -0.363 ± 0.15
162 | H52G | 0.022 ± 0.082
163 | H52D | -0.177 ± 0.15
164 | H52C | -0.103 ± 0.13
165 | H52K | 0.088 ± 0.18
166 | H52N | 0.023 ± 0.18
167 | H52T | 0.185 ± 0.14
